From the supplement of paper PMC9170038

system: K4 kissing-loop RNA reporter; test: apparent KD of K4 kissing-loop reporter; higher = weaker reporter binding; details: Eterna round: R107; input ligand: arginine 13.2 mM
Protocol: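 RNA-MaP round R107: designed RNA switches with theophylline, tryptophan, arginine or FMN aptamers are transcribed on-chip within common flanks. They are titrated with a labelled K4 kissing-loop RNA reporter in RNA-MaP buffer (100 mM Tris pH 7.5, 80 mM KCl, 4 mM MgCl2), without ligand or with the indicated ligand. Median apparent KD per design.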
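Further: bound reporter read as fluorescence of individual clusters on recovered sequencing chips by microscopy, with normalized cluster intensities fitted with a binding model.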

Sequence | apparent KD of K4 kissing-loop reporter
UCGGACCCUGGAGGAUAUGAGUCGAGUGAUGUUCGGCGGUCCAUGCCGAUGCGGCGUUAUGCCCUUUUAGAAGGCCAGGGUCCGA [#2 Exclusion - FMN B Attempt #10 (HarryS)] | 216 nM
AUUAAUUUCAGAGGAUAUCGUUAUUUUUUUAAGUAUAAUCUAUUUUGCAGUGAUGUUGCUAUUAAUCGAGAAGGCUGAUUUAUAA [JR_SSFMNB_Sub020] | 140 nM
AGUACGGACACGGCCGCCACUCAGAAGAAGACAGUAGUGAUGUUACUGAUGGUGAGAAUAAUAAAGAGGACCGGGUGUCGUGCAA [#05 K4 Tryptophan B Same State] | 191 nM
GUUACGCAUGGAAGGAGCGCGAAAAUUUAUAGUGAGUGAUGUUCACAAAUAAGAAUAAUAACGCAGGUAGGUCGCCAUGUGUAAC [Ex Arginine B K4 5] | 86.8 nM
UGAUUGGCGAAAGUAGUGAUGUUACGAAUAUAGGAUAUUAGAGGAAUAAGAAGGAUAAGGGAGAAAUAGGUAAAUUGUUGGUUGG [whbob_SS_FMNA__2th170] | 79.7 nM
AUUCUAUGGAGUGAUGUUCCUGUGAUGUCACGAGGACCGGUACGGCCGCCACUCGAUGUAUUGGUUUUUGAAAGAAACAACUGCA [Same State-Tryptophan A] | 701 nM
AAGUCUCGUUAAUUCGAGGUUGCGAUCGAUACCAGUAGCGAGAGGUACCCUUGGCAGCGAAGUGAGUGAUGUUCAUGAAAGAAGA [KL-XTheoA13] | 101 nM
AGGAUCGAAGAUCCAGCAGUCAAGCAAUACCGAGGACCGGUACGGCCGCCACUCGGAGUGAUGUUCCGAAGACUGCAAAAUAAAA [#SwitchBubble 8] | 1050 nM
GCGGCCCAGCCGGAUACCAGUGAGCCGCUGGGAACCGCGGGCCCAGAGUGAUGUUCGGGACACCCUUGGCAGCCGCCUGGGUCGC [#2 Same State - Theophylline B Attempt #20 (HarryS)] | 293 nM
AAUAAAAUCACGGCCGCCACUGAUGCUAAUAUUGGCAGUGAUGUUGCUAUGUAUAUUUUAUUUGACAGGACCGGGUGAAUAUUUA [#24 K4 Tryptophan B Exclusion] | 198 nM
GUAGCACAGUCGGCCGCCACUGUCGGUUCUCCAGUGAUGUUGGAGUUAGUUCGUCGCAGUUCAAACAGGACCGGGACCAUUCCUU [theeternabot_exclusion_KL_Trp_B_26] | 135 nM
ACGUGCACCAGUGAUGUUGGAAAAUAUGAAGGAGCGGGAGAAAACCCAGGUAGGUCGCAUAAUUGCACGAGCCACGAAAGUGGCA [#15 K4 Arginine A Same State] | 93.7 nM
UGUGUUUACCUGACUCAGUGAUGUUGAGAAGGAGCGUGCGAACGCACAGGUAGGUCGCUCAACCUAAAUUCAGGUGAGCACUAAA | 443 nM
AAAUAUUCGAGUGAUGUUCGAUAAAUAUCAGAGGAUAUGCUUAAAAGCAGAAGGCUGUAUUUCUAUUUGUUAUGUAAUUUUAUAA [JR_SSFMNA_Sub021] | 160 nM
AAGCAGUCACUCGACGCCAUCGAAGAUGGGCGAGGACCGGUACGGCCGCCACUCGGAGUGAUGUUCUGAUGACUGCAAAAUAAAA [MatMod 8 - Jieux - Exclusion - Tryptophan A] | 52.7 nM
AAGGUCACUGCUACAGUGAUGUUGUGGGAGCAGGAUAUGCAGAAAUGCAGAAGGGCUCGCUCCAGGUGACCGAAUGAAACAUUCA [whbob_SS_FMNA__2th175] | 826 nM

Sequence | apparent KD of K4 kissing-loop reporter
AUGCAGUGAUGUUGCUUUGUAUAAACAGAUACCAGUGAAUUUUAACACCCUUGGCAGCUGAUAGAUUCUUAAUUCUAUUAUAUAA [JR_SSTheophyA_Sub020] | 189 nM
UUAUAUACGAGUGAUGUUCGUUAUUUAUCAGAGGAUAUGCUUAAAUGCAGAAGGCUGUUUUUCUAUUUGAUAUUAAAUUUUAUAA [JR_Nu3_ExcFMNA_Sub027] | 89.3 nM
UUGGUCUUUUAAGGAUAUCAUACUCCACUGAGCGAGUGAUGUUCGCUCCUGUUACGCCUGGGACCGUGAGAAGGUAAAGUACCGU [theeternabot_sameState_KL_FMN_B_5] | 138 nM
UCCUAGGACUUCAGGCGAAAGCCCUGCGAAGGAGCGUGCGAAAGCACAGGUAGGUCGCGCAGUGAUGUUGCACCUAGGUAAUAAA [#SwitchBubble 20 #K4Late] | 656 nM
GUGCAGUGAUGUUGCACGAGGAAAGACGAUACCAGCCGUAAAUAAGGCCCUUGGCAGCGUAGGCUAGCAUAAAGCAUGCUAGUCC [Edeson] | 98.8 nM
UGUCAUUGGUCGGCCGCCACUUUGUAUGGAGUGAUGUUUUGUAGAUUGUGUUGAAAGGUGUGGUGAAGGACCGGGACCGAUGACU [FiskerMod 24 - Jieux - Same State - Tryptophan B] | 652 nM
UGUACCGAGUCAGGAUAUCAUAAUAAAUGCAGUGAUGUUGCAAUAACCAGUACAAAAGUGCUGGAUUGAGAAGGGACUUGGUACU [FmnBS 5 #SwitchBubble #StaticStem] | 126 nM
AGAGUACGAAAGUACUCCUCUACACACUGACGAGGACCGGUACGGCCGCCACUCGAGUUGAGUGAUGUUCGAUAGUGUGUAGAGA [Omei KL Tryp A SS C v3] | 38.4 nM
GCAGCUCGGGAGUGAUGUUCUCGUAGAGGAAAGGAUAUGUACUUAGACAGAAGGUUCGCAAUUUGCGGUCUUAAGAUAGAAUAAC [theeternabot_sameState_KL_FMN_A_40] | 126 nM
CACCCAGUCCUCGAUACCAGACUGGCACGUCAAAAGGUCCAGUGAUGUUGAGCCUAACAAGUCCCUUGGCAGCGACCAGUGUAUU [theeternabot_exclusion_KL_Theo_B_30] | 573 nM
AGACUACUGAUAGGAUAUAACAUACUACCUCGUAUACCAAAGGUAUACGAGGCCCUUCUAGUGAUGUUAGAAGGGUCGGUAGUCA [Omei KL FMN B Exc B v5] | 76.4 nM
CUCGAGUGAUGUUCGACGCGUCCGUACGAUACCAGCGUAGACCGUCGCCCUUGGCAGCGUGAUGCAGCCCGAAAGUCCGGUUCCU [theeternabot_sameState_KL_Theo_A_26] | 833 nM
AAUAUCUAGUAUAUUUUUAAUAAAACAGAUACCAGUGAUAAUAGACACCCUUGGCAGCUGGUCGAGUGAUGUUCGUUUAUUUUAA [JR_SSTheophyA_Sub005] | 79.5 nM
AAUCGCGAGUCAGAUACCAGUUGGCUCGAGAGUCAGUGAUGUUGAUGUAAAUCUUAGGCGAACCCUUGGCAGCUGUCACCAGUCC [theeternabot_sameState_KL_Theo_B_27] | 326 nM
GGAGUUACCUGGGAUACCAGUCGGAGUCCCAGAGCACAGAGUGAUGUUCUGGGAUGUUUCGGCCCUUGGCAGCUCUGGGACUCCC [#2 Exclusion - Theophylline B Attempt #13 (HarryS)] | 254 nM
AUGCAUGAAAGUGAUGUUUUCAGUAAUGGAAAGGAUAUGCGCUGGUGCAGAAGGUUCUAAAGUGCAUCCAACAACUGGGUAGGCC [theeternabot_sameState_KL_FMN_A_36] | 316 nM

same assay, conditions: Eterna round: R107; input ligand: none

Sequence | apparent KD of K4 kissing-loop reporter
GCAGGAUGAGGAGGAGGAUGAAUUACUGAAGGAGCGCAUAUUUUUGCAGGUAGGUCGCGGUAAAGAAGUAUAGUGAUGUUAUAUA [SSArgA.K] | 267 nM
UGUGUACCGGGAAGGAGCGUGAAUGAUAAUGGAUAUAGUGAUGUUAUAUAUACGAACGAAUCGCAGGUAGGUCGCCCGGAUCCCU [SSArgB.X] | 639 nM
GCAGUGAUGUUGCGGAUGUACAGUGGCGUGCGAGGACCGGUACGGCCGCCACUCGUACAGACCAAGCUAAUACAUCGAUAGGUGA [whbob_SS_Tryp_A_m3] | 353 nM
AGAUGGCAGUGAUGUUGCUGUUGGAGGGAUAAGGAUAUUGGCUAAACAAGAAGGUAUCGGCGGCAUUGAGGAAUGGGAGGCGCCU [theeternabot_exclusion_KL_FMN_A_7] | 510 nM
CGACGGAGUGAUGUUUCGUGGUAUGCUGAUACCAGAUGAAACAGCGUCCCUUGGCAGCAGCAUACGCCAAGGAUAAUAUCCUAGU [Theo B SS t6] | 1770 nM
GGGAGGAGUGGUGUUGAUUAGGGAGCGGAAGGAGCGCCGAGGAAGGCAGGUAGGUCGCCGGAUUAUAGUGAUGUUAUGAAGAGGG [ExArg.J] | 679 nM
UAUUCUAAUGCGGCCGCCACUGGAAGUGAUGUUUCCUCUGGCUAUCAUUUCGGACGGUAUUGUCCCAGGACCGGGCAUCCCUCUC [theeternabot_exclusion_KL_Trp_B_4] | 106 nM
GGAUGGUAGGCGGCCGCCACUAAAACUGAACACAUACAAGCCAGUGAUGUUGGUAUGAUGAAGUAUAGGACCGGGCCUAGAUAGA [Exclusion - Tryptophan B (Freestyle 3)] | 422 nM
GGCACGGUGGCGCGACUGCCGUGCGCUUGGGAGGAUAUGUUUCGUGACAGAAGGCCCAGUGAUGUUGGGUCUGUUCAAAAGGACU [Gegearer] | 127 nM
UAUAUAGUGACGGCCGCCACUAUAGUGAUGUUAUUGUUAGAGUGAUGUUUUGUUGUUUAAUUUUGUAGGACCGGGUUAUAUGUUA [tbbtmullin] | 504 nM
UCGGACCCUGGAGGAUAUGAGUCGAGUGAUGUUCGGCGGUCCAUGCCGAUGCGGCGUUAUGCCCUUUUAGAAGGCCAGGGUCCGA [#2 Exclusion - FMN B Attempt #10 (HarryS)] | 277 nM
AUUAAUUUCAGAGGAUAUCGUUAUUUUUUUAAGUAUAAUCUAUUUUGCAGUGAUGUUGCUAUUAAUCGAGAAGGCUGAUUUAUAA [JR_SSFMNB_Sub020] | 75.3 nM
AGUACGGACACGGCCGCCACUCAGAAGAAGACAGUAGUGAUGUUACUGAUGGUGAGAAUAAUAAAGAGGACCGGGUGUCGUGCAA [#05 K4 Tryptophan B Same State] | 286 nM
GUUACGCAUGGAAGGAGCGCGAAAAUUUAUAGUGAGUGAUGUUCACAAAUAAGAAUAAUAACGCAGGUAGGUCGCCAUGUGUAAC [Ex Arginine B K4 5] | 105 nM
UGAUUGGCGAAAGUAGUGAUGUUACGAAUAUAGGAUAUUAGAGGAAUAAGAAGGAUAAGGGAGAAAUAGGUAAAUUGUUGGUUGG [whbob_SS_FMNA__2th170] | 128 nM
AUUCUAUGGAGUGAUGUUCCUGUGAUGUCACGAGGACCGGUACGGCCGCCACUCGAUGUAUUGGUUUUUGAAAGAAACAACUGCA [Same State-Tryptophan A] | 842 nM
AAGUCUCGUUAAUUCGAGGUUGCGAUCGAUACCAGUAGCGAGAGGUACCCUUGGCAGCGAAGUGAGUGAUGUUCAUGAAAGAAGA [KL-XTheoA13] | 107 nM
AGGAUCGAAGAUCCAGCAGUCAAGCAAUACCGAGGACCGGUACGGCCGCCACUCGGAGUGAUGUUCCGAAGACUGCAAAAUAAAA [#SwitchBubble 8] | 955 nM
GCGGCCCAGCCGGAUACCAGUGAGCCGCUGGGAACCGCGGGCCCAGAGUGAUGUUCGGGACACCCUUGGCAGCCGCCUGGGUCGC [#2 Same State - Theophylline B Attempt #20 (HarryS)] | 643 nM
AAUAAAAUCACGGCCGCCACUGAUGCUAAUAUUGGCAGUGAUGUUGCUAUGUAUAUUUUAUUUGACAGGACCGGGUGAAUAUUUA [#24 K4 Tryptophan B Exclusion] | 245 nM
GUAGCACAGUCGGCCGCCACUGUCGGUUCUCCAGUGAUGUUGGAGUUAGUUCGUCGCAGUUCAAACAGGACCGGGACCAUUCCUU [theeternabot_exclusion_KL_Trp_B_26] | 127 nM
